Measurements taken from publication PMC9967848.

Assays:
Conditions in all cases: none (in vitro transcript); 20 mM Tris-HCl pH 8, 50 mM NaCl, 1 mM MgCl2; 5 nM tRNA, 30 min incubation; temperature not stated
[1] = tested on: EPRS linker (whole linker) (human); assay: fluorescence quenching
EPRS linker R1R2 (human) = assay: fluorescence anisotropy
EPRS linker R2R3 (human) = assay: fluorescence anisotropy
[2] = tested on: EPRS linker R1R2R3 (human); assay: fluorescence anisotropy

Substance	Kd [1] [µM]	Kd (EPRS linker R1R2 (human)) [µM]	Kd (EPRS linker R2R3 (human)) [µM]	Kd [2] [µM]
bovine tRNATrp	0.511	–	–	–
human tRNAGlu	0.886	–	–	–
human tRNALys3	0.589	0.209	> 10	0.043
human tRNAPro	0.449	–	–	–
